The text below walks through data of paper PMC3721678.

pKd: −log10 of the molar value.

Holding throughout (test): SPR
Experiment [1] deals with IgA1-Fc Fc (Homo sapiens) (UniProt P01876). Particulars: cited from earlier work.
Experiment [2] addresses Hinge region glycopeptide (HR-GalNAc) (human).
For experiment [3], the target named is monomeric IgA1Mce myeloma protein (human).
Experiment [4] concerns the target monomeric IgA1κ myeloma protein (human).
Experiment [5] deals with monomeric IgA1λ myeloma protein (human).
Experiment [6] deals with polymeric IgA1Ale myeloma protein (human).
Experiment [7] concerns the target polymeric IgA1Mce myeloma protein (human).
The target of experiment [8] is polymeric IgA1κ myeloma protein (human).
Experiment [9] has as its target polymeric IgA1λ myeloma protein (human).

Chain of IgA1-Fc Fc (Homo sapiens) (P01876 120-340): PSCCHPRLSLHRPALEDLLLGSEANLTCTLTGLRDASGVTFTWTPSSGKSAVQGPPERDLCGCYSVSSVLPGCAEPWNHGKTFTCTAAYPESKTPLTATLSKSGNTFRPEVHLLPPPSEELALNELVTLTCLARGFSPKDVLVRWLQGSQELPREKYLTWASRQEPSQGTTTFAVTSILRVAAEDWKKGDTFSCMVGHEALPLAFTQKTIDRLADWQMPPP
Chain of FcαRI (P24071 22-287): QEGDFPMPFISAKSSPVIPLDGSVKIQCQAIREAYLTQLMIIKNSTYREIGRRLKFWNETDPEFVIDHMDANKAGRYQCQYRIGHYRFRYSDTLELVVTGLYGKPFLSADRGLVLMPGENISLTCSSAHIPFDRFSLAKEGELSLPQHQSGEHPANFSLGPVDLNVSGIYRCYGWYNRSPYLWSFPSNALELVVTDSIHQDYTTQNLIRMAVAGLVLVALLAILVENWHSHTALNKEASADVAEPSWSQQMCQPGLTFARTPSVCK

Regarding FcαRI (from UniProt P24071), the pKd in [1] was 8.05.
“Helix aspersa agglutinin (natural protein)”: the KD1 (two-site model, apparent) in experiment [2] stood at 0.11 µM; in experiment [3], 7.2 µM; in [4], 1.8 µM; in [5] it was 6.2 µM; in [6], 1 µM; in [7] it was 5.6 µM. The KD1 (two-site model, apparent) turned out to be 1.7 µM in experiment [8] and 3 µM in experiment [9]. In addition, the KD2 (two-site model, apparent) in [2] was 7 µM; in experiment [3], 76 µM; in experiment [4], 8 µM; in experiment [5], 73 µM; in experiment [6] it was 14 µM; in experiment [7], 70 µM. The KD2 (two-site model, apparent) in experiment [8] is 25 µM; in experiment [9], 28 µM.
Consider “Helix pomatia agglutinin (natural protein)”, for which the KD1 (two-site model, apparent) worked out at 0.045 µM in experiment [2]; 2.3 µM in experiment [3]; 0.76 µM in [4]; 1.8 µM in experiment [5]; 0.58 µM in [6]; 1.1 µM in experiment [7]. Besides, the KD1 (two-site model, apparent) is 0.65 µM in experiment [8] and 1.1 µM in [9]. Further, the KD2 (two-site model, apparent) in [2] amounted to 2.3 µM; in experiment [3] it was 24 µM; in experiment [4], 10 µM; in experiment [5] it was 21 µM; in experiment [6] it was 6 µM; in experiment [7], 7 µM. The results for the KD2 (two-site model, apparent) in experiment [8] and in experiment [9] were 11 µM and 5 µM, respectively.
